Experimental findings from patent CN111423515A (BETA PHARMA INC, dated 2020) are described below.

Test [1] concerns the target T1, human CD47 on cells (CHO-K1/hCD47; human red blood cells RBC) (human, UniProt Q08722 19-323).
T1 construct: whole, on cells; also called CHO-K1/human CD47; 红细胞
Description: flow cytometry, RBC mixed 20:1 with Raji, 10 μg/mL. A general note: Flow cytometry measures light scatter and fluorescence of single cells or particles in a stream.

The target in test [2] is T2, human CD20 on cells (CHO-K1/CD20) (human, UniProt P11836 1-297).
T2 construct: whole, on cells; also called CHO-K1/hCD20; CHO-K1/human CD20
T2 sequence (looked up): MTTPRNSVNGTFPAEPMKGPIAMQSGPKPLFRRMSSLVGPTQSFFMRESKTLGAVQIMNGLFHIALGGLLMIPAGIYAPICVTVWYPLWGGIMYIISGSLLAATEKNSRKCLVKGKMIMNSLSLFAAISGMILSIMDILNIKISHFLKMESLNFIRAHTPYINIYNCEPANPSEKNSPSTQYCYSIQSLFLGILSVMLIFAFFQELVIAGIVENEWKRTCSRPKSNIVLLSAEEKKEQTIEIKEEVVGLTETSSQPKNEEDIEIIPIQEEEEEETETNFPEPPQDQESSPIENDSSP
The test is described as follows: flow cytometry on CHO-K1/CD20 cells.

A further test concerns the target T3, hCD47-his (human, UniProt Q08722 19-139).
T3 construct: Bought protein coated on the ELISA plate; also called Cat#CD7-H5227; not shown: his tag
Description: ELISA, hCD47-his coated.

T1 sequence (Q08722 19-323): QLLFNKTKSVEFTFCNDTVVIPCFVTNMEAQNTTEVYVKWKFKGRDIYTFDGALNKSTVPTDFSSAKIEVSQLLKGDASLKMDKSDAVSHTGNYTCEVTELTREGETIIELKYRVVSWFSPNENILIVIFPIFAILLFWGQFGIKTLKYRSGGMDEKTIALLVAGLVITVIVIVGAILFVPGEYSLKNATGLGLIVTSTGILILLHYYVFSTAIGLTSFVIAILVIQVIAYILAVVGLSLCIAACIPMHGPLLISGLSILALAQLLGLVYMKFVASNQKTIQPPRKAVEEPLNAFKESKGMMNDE
T3 sequence (Q08722 19-139 limits assumed): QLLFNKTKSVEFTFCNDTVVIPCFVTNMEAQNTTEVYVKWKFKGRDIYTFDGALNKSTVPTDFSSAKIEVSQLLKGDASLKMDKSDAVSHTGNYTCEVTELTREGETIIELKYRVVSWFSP

B1: 9020-1RP-1C1 (bispecific antibody)
heavy: not shown
light: QIVLSQSPAILSASPGEKVTMTCRASSSVSYIHWFQQKPGSSPKPWIYATSNLASGVPVRFSGSGSGTSYSLTISRVEAEDAATYYCQQWTSNPPTFGGGTKLEIK
notes: not shown: light chain constant region of the CD20 antibody
For the molecule B1, the binding result in test [1] and in test [2] was “binds” throughout.

B2: 9020-1RP-1C2 (bispecific antibody)
heavy: not shown
light: B1 light
notes: linker changed; not shown: light chain constant region of the CD20 antibody
In the case of B2, the binding result in test [1] and in test [2] was “binds” each time.

B3: 9020-6RP (bispecific antibody)
heavy: QVQLQQPGAELVKPGASVKMSCKASGYTFTSYNMHWVKQTPGRGLEWIGAIYPGNGDTSYNQKFKGKATLTADKSSSTAYMQLSSLTSEDSAVYYCARSTYYGGDWYFNVWGAGTTVTVSA
light: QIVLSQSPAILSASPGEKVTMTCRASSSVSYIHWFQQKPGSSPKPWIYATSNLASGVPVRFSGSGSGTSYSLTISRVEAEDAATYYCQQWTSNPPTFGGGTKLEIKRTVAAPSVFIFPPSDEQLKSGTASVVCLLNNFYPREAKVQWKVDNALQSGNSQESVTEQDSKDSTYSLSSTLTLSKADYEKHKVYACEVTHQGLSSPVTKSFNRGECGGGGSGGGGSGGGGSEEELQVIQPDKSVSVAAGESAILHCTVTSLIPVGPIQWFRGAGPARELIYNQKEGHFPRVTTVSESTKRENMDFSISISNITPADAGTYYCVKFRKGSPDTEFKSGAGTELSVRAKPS
notes: Bispecific light chain co-transfected with the CD20 antibody heavy chain; not shown: IgG1 constant region
For the molecule B3, the binding result in test [2] was “binds”.

B4: 重组蛋白CD002 (Fc fusion)
chain: EEELQVIQPDKSVSVAAGESAILHCTVTSLFPVGPIQWFRGAGPARELIYNQRQGPFPRVTTVSETTKRENMDFSISISAITPADAGTYYCVKFRKGSPDTEFKSGAGTELSVRAKPS
notes: Control recombinant protein; the format is not described; not shown: not described
For B4, the binding result in the test with hCD47-his is listed as “binds”.
